Test results taken from patent US20250092108A1.

Biological target: IL-2 receptors (high-affinity IL-2Rαβγ or intermediate-affinity IL-2Rβγ) on PBMC lymphocytes (UniProt P01589)
Assay: cell-based or functional assay

IL-2 receptors (high-affinity IL-2Rαβγ or intermediate-affinity IL-2Rβγ) on PBMC lymphocytes, sequence (P01589 22-272 limits assumed, chain 1 of 3): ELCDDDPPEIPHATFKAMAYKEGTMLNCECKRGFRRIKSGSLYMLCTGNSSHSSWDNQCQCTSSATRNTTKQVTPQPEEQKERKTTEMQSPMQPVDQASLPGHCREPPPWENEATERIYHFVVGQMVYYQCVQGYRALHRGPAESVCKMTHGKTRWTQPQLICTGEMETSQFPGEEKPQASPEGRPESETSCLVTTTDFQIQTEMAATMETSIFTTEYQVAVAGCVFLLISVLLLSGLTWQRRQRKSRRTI
IL-2 receptors (high-affinity IL-2Rαβγ or intermediate-affinity IL-2Rβγ) on PBMC lymphocytes, sequence (P14784 27-551 limits assumed, chain 2 of 3, further chain): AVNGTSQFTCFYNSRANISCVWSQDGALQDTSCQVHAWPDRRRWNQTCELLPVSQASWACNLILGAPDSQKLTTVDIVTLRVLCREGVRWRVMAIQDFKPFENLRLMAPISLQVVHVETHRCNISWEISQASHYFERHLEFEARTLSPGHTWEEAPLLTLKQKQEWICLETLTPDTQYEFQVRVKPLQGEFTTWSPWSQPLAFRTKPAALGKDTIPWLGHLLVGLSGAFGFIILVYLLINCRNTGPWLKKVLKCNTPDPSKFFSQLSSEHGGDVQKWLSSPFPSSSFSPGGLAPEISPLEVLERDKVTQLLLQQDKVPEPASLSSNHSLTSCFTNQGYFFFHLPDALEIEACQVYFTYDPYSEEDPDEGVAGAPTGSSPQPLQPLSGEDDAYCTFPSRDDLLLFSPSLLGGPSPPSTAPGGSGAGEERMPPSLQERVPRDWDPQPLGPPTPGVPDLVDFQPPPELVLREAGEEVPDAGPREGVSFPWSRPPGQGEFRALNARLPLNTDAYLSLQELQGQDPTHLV
IL-2 receptors (high-affinity IL-2Rαβγ or intermediate-affinity IL-2Rβγ) on PBMC lymphocytes, sequence (P31785 23-369 limits assumed, chain 3 of 3, further chain): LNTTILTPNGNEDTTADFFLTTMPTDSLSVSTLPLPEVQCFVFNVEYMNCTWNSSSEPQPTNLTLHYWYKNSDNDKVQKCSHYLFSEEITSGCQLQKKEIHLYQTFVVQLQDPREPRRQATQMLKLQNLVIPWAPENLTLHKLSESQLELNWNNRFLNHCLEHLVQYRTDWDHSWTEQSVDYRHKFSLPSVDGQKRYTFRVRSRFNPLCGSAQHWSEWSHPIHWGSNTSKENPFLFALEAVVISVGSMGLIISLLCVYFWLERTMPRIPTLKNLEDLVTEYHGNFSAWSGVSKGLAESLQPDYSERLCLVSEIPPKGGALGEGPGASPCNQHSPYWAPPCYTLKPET

XENP27193, an Fc-IL-2(V91K/C125A) fusion as described in WO 2014/153111 (from UniProt P60568 21-153) (Fc fusion)
EC50, induction of STAT5 phosphorylation (in vitro potency): 0.01 nM
